# Experimental data as given in patent publication US20250326867A1, “De novo designed chlorophyll special pair proteins” (University of Washington, priority 2024, published 2025).
# T1: O32-15B
# T1 construct: Homotrimeric component of the O32-15 octahedral nanocage (8 trimers per cage); also called C3 trimer; trimeric component
# T1 chain: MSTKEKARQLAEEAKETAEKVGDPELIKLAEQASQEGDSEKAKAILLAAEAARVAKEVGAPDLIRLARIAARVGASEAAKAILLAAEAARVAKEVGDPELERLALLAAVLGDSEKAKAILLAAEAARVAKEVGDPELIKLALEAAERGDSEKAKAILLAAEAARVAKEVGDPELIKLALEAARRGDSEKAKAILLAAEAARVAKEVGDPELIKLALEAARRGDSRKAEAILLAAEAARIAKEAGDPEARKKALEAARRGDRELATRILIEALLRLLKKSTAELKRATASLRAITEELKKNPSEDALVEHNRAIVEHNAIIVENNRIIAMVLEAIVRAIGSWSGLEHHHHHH
# Tests used:
# O32-15B = target: T1, O32-15B; assay: negative-stain EM of two-component octahedral nanocage
# Method: Transmission negative-stain electron microscopy (nsEM) and image processing: SEC purified cage fractions were diluted to about 0.5 μM (monomeric component concentration) for negative-stain EM characterization. Briefly, on a glow-discharged formvar/carbon supported 400-mesh copper grid (Ted Pella, Inc.), 6 μL of protein sample were drop-casted for 2 mins. The grid was blotted and stained with 3 μL of 2% uranyl formate, blotted again, and stained with 3 μL of uranyl formate for 20 s before final blotting. Micrographs of stained samples were taken on a 120 kV Talos™ L120C transmission electron microscope. All nsEM datasets were collected using the EPU software and processed by CryoSparc™ (Punjani et al. 2017) with contrast transfer function (CTF) correction. All the particle picks were 2D classified for 20 iterations into 50 classes. Particles from selected classes were used for building the ab-initio initial model. The initial model was homogeneously refined using C₁ and the corresponding O symmetry.
# CpcA-PEB = target: T2, CpcA-PEB (Synechocystis sp., UniProt Q54715); assay: Excitation energy transfer in 2D surface arrays by FLIM / time-resolved single photon counting; settings: 485 nm laser
# T2 construct: made in house; host or cells: E. coli
# T2 sequence (Q54715 whole entry): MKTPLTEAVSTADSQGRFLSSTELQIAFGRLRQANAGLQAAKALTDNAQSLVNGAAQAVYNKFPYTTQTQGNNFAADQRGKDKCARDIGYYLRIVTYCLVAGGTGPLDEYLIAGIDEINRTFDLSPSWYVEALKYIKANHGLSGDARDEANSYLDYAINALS
# Description: Native special pairs play a critical role as energy transfer acceptors for antenna proteins. To test whether our designed SP proteins participate in energy transfer with natural light-harvesting proteins, we analyzed excitation energy transfer in 2D surface arrays using Fluorescence Lifetime Imaging Microscopy (FLIM) in combination with nanoimprint lithography (Huang, Vasilev, and Hunter 2020) (FIG. 5). We selected the cyanobacterial antenna protein CpcA with attached phycoerythrobilin (PEB) as the energy transfer donor. CpcA-PEB was purified from E. coli, and gives a strong fluorescence emission maximum at 568 nm and emission extending past 630 nm (Barnett et al. 2017), overlapping with the excitation spectrum of Zn pheophorbide a (ZnPPa) when bound to SP2. […]
# To quantify the strength of the interaction between CpcA-PEB and SP2-ZnPPa, we used time-resolved single photon counting. The surface was illuminated with a 485 nm picosecond laser filtered at 620 nm (donor emission), and photons were counted for individual pixels (surface resolution approximately 300 nm) over time, allowing both total fluorescence intensity and lifetime to be analyzed (FIG. 5d). In regions with only CpcA-PEB, fluorescence intensity was above 4000 arbitrary units (a.u.) and the lifetime was over 2 ns (τav=2058 ps). […]
Molecule,binding result (O32-15B),"energy transfer efficiency of CpcA-PEB to SP2-ZnPPa (CpcA-PEB; 2D arrays on poly-L-lysine glass, 620 nm filter) [%]","donor fluorescence lifetime τav (CpcA-PEB; regions with both CpcA-PEB and SP2-ZnPPa, 620 nm donor emission (CpcA-PEB only: 2058 ps)) [ps]"
"O32-15A (designed binder, Homodimeric component of the O32-15 octahedral nanocage (12 dimers per cage); also called C2 dimer (based on SP2); chlorophyll dimer component) MDEEFKFLATEAKMLITAAERLAGTDPRLQEMVALIKKELEQAERTFRNGDKSEAQRQLEFVLTAARAVMNVAAAANAAGTDPLLKAMVDAILWRLKEAIRTFQNGDEEAETQLRFVLRAAIAVAVVAAALVLAGTDPELQEMVEQIKDLLISAFMAGEKALTQLLFVAWAAHAVAMIAAAANLAGPRLQQQVKEILEKLKEAIETFQKGDEEQAFRQLAEVLAEAALVALRAALTNLEHHHHHH",binds,–,–
"SP2-ZnPPa: SP2 protein with bound Zn pheophorbide a (ZnPPa), energy transfer acceptor (protein) SGSGSSDEEFKFLATEAKMLITAAERLAGTDPELQEMVALIKKELEQAERTFRNGDKSEAQRQLEFVLTAARAVMNVAAAANAAGTDPELIEMVLRILKQLKEAIRTFQNGDQEEAETQLRFVLRAAIAVAVVAAALVLAGTDPELQEMVKQILEELKQAIETFARGDKEKALTQLLFVAWAAHAVAMIAAAANLAGTDPRLQQQVKEILEKLKEAIETFQKGDEEQAFRQLAEVLAEAALVALRAALTN",–,59,839
